We go through two compounds from US11541133B2, “Treatment of cancer cells overexpressing somatostatin receptors using ocreotide derivatives chelated to radioisotopes” (RADIOMEDIX INC., priority 2017, dated 2023).

Data set [1] can be described thus: Dosimetry and bio-distribution of ^203Pb-DOTAMTATE in patients with somatostatin expressing neuroendocrine tumors (SPECT-CT). The data set is classed as in vivo, human. On the procedure:
Total of 6 patients are enrolled in the first-in-human open-label, single-dose, dosimetry and bio-distribution of ^203Pb-DOTAMTATE.
All patients (1 female and 5 male) receive an average dose of 4.94 (4.66-5.26) mCi of ^203Pb-DOTAM-TATE and undergo 1 hour, 4 hour, 24 hour and 48 hour post injection SPECT-CT scans. Ethnicity of all 6 patients is Caucasian.
Pharmacokinetic data from ^203Pb-DOTAMTATE imaging are used to calculate the absorbed dose from ^203Pb-DOTAMTATE imaging. The data is then extrapolated to calculate the expected tissue absorbed doses following the administration of ^212Pb-DOTAMTATE for future Targeted Alpha particle Therapy (TAT).

The nature of data set [2]: Non-GLP dose range finding (single dose acute toxicity) study in athymic nude mice (FIGS. 35-36). The data set is classed as in vivo. On the procedure:
Female athymic nude mice (˜20 g) are injected with a single dose of 10 μCi, 20 μCi, 40 μCi or 60 μCi of ^212Pb-DOTAMTATE or control PBS intravenously. Five animals are assigned per treatment group. Animals are weighed three times per week and monitored daily for signs of termination criteria (15% weight loss over 2 days, lack of grooming over 5 days, lethargy/weakness over 3 days, reduced motility, hunched back, diarrhea, hypothermia). The study is concluded after 4 weeks.

The nature of data set [3]: in vivo. Also noted: species or system mice. As for the experimental part:
Female CD-1 mice (˜20 g) are injected with a single dose of ^212Pb-DOTAMTATE. Specifically, 10 μCi of ^212Pb-DOTAMTATE is diluted in PBS and 100 μl is administered to the mice via intravenous injection. The animals are sacrificed at predetermined time points of 15 minutes, 1 hour, 4 hours and 24 hours and 48 hours post drug injection. Tissues are collected from each animal and evaluated for amount of radioactive material in each organ by auto gamma counter. Specifically, organs are harvested, weighed and transferred to polypropylene tubes. The tubes are placed in a calibrated Wizard2 γ-counter (PerkinElmer, Shelton, Conn.) and counted for three minutes (204-274 keV). A standard consisting of one-twentieth of the injection volume is counted with each time point. The background is automatically subtracted from the counts. The standard is also used for decay correction. % ID/g is calculated for each organ collected.

Data set [4] relates to AR42J cells.
Protocol: Thirty-thousand (3×10^4) AR42J cells are grown in the wells of a 96 well plate for 2 days. Cells are then incubated for 4 hours with increasing doses of ^212Pb-DOTAMTATE ranging from 0 nCi/ml to 800 nCi/ml. Eight wells per group are treated. Cells are washed with PBS to remove drug and then fresh media is introduced. Cells are allowed to incubate for 6 days at 37° C. Cells are then rinsed and incubated with fluorescein diacetate for 30 minutes and read with a fluorimeter at 485/535 nm. Percentage of viable cells is calculated based on untreated cells as a control.
Data set [5] in a line: Repeat-dose (fractionated vs single dose) toxicity study in tumor-free CD-1 mice (FIGS. 37-39). The data set is classed as in vivo. As for the experimental part: Female, tumor free CD-1 mice are injected with one dose of 40 μCi ^212Pb-DOTAMTATE, 2 doses of 20 μCi ^212Pb-DOTAMTATE or three doses of 15 μCi ^212Pb-DOTAMTATE. Animals are given three weeks between doses for these who received multiple treatments. Animals are weighed three times per week and monitored daily for signs of termination criteria (15% weight loss over 2 days or 20% loss from initial weight, lack of grooming over 5 days, lethargy/weakness over 3 days, reduced motility, hunched back, diarrhea, hypothermia). Blood for hematological analysis is collected weekly.

The conditions of data set [6]: mouse, in vivo. From the text: Signs of acute toxicity are examined in a non-GLP repeat dose study to compare single administration vs fractionation (described below). This study is designed based on observations made in athymic nude mice. […] This observation is correlated with the GLP findings that hematological toxicity in the surviving animals from the higher dose groups is recoverable within a month. As renal and hepatic toxicity is cumulative a single dose treatment vs multiple doses leading to the same cumulative dose should be similar (Barendsen, 1964). Fractionated administration of radioactivity three weeks apart compared to a single injection had very similar toxicity profile.

Data set [7] is described as follows: in vivo. Also noted: species or system mice. The settings on record: CD-1, mouse, iv, 10 uCi, total radioactivity. As for the experimental part:
CD-1 mice are injected with 10 μCi of ^212Pb-DOTAMTATE as part of a biodistribution study. Blood is collected at 15 minutes; 1 hour and 4 hours post injection. Body weights determined by taking the average of 10 CD-1 mice at 7 weeks old, the age of the mice in this study and using this weight, blood volume is estimated using the equation by Lee and Blaufox (1985). % ID in blood mice is then calculated for 5 mice per group.

Data set [8] concerns AR42J tumors. Kind of data set: Combination therapy efficacy study with ADRUCIL in AR42J xenograft athymic nude mice (FIGS. 42-43). The data set is classed as in vivo. The settings on record: ADRUCIL alone, 15 mg/kg once weekly, nine injections. As for the experimental part: Athymic nude mice are given AR42J tumors and allowed to grow until tumors reach about 300 mm^3. Mice in treatment groups are injected with 100 μl of 15 mg/kg ADRUCIL® once weekly for a total of nine injections. 10 μCi of ^212Pb-DOTAMTATE is given at either 2 week or 3 week intervals for a total of 3 treatments. The ^212Pb-DOTAMTATE is given within 24 hours after an ADRUCIL® treatment. 10 μCi per 4.1 ng peptide is used, and the cumulative injection dose is 30 μCi. The animals are monitored daily, and calipered and weighed 3 times per week. The animals are sacrificed when termination criteria are met.

Where [9] appears, read: female, CD-1, mouse, iv, 10 uCi, total radioactivity.

In the case of `C[C@@H](O)[C@H](NC(=O)[C@@H]1CSSC[C@H](NC(=O)[C@@H](Cc2ccccc2)NC(=O)CN2CCN(CC(N)=O)CCN(CC(N)=O)CCN(CC(N)=O)CC2)C(=O)N[C@@H](Cc2ccc(O)cc2)C(=O)N[C@H](Cc2c[nH]c3ccccc23)C(=O)N[C@@H](CCCCN)C(=O)N[C@@H]([C@@H](C)O)C(=O)N1)C(=O)O` [^212Pb-DOTAMTATE, ((4R,7S,10S,13R,16S,19R)-13-((1H-indol-3-yl)methyl)-10-(4-aminobutyl)-16-(4-hydroxybenzyl)-7-((R)-1-hydroxyethyl)-6,9,12,15,18-pentaoxo-19-((R)-3-phenyl-2-(2-(4,7,10-tris(2-amino-2-oxoethyl)-1,4,7,10-tetraazacyclododecan-1-yl)acetamido)propanamido)-1,2-dithia-5,8,11,14,17-pentaazacycloicosane-4-carbonyl)-L-threonine chelated to M, metal not drawn], the “cumulative dose corresponding to the maximum theoretical absorbed dose estimate to kidneys of 23 Gy” value in data set [1] (human, in vivo) is 32.7 mCi. For the same compound, the “dose per therapy cycle corresponding to the maximum theoretical absorbed kidney dose of 23 Gy” value in data set [1] (patients, dosimetry analysis, 3 cycles) is 10.9 mCi. Besides, in data set [2] (single dose 10 μCi and 20 μCi groups), the “animals surviving until the end of the four-week study” value was determined as 100%. The “time of death of all animals” value in data set [2] (single dose 60 μCi) came to 7 days post injection. In data set [3] (setting [9]), the tissue uptake at 1 h was roughly 30 %ID/g and the tissue uptake at 24 h was roughly 10 %ID/g. Also, the “percent-injected dose per gram, all organs with the exception of the kidneys” value in data set [3] (mouse) is listed as “less than 10%”. Also, the cytotoxic effect result in data set [4] is “complete cell death”. Besides, the animals that died in data set [5] (1×40 μCi, nine days after injection) is roughly 40%. The animals that died in data set [5] (2×20 μCi, within four weeks of the study, one week after the second dose) was 50%. The mortality entry in data set [5] (3×15 μCi, three weeks between doses) is given as “no mortality”. Also, the “toxicity compared with single 40 μCi dose” value in data set [6] was “same toxicity profile”. In addition, in data set [7], the tissue uptake dose at 1 h is 1.8 %ID and the tissue uptake dose at 4 h came out at 0.1 %ID.
For `O=c1[nH]cc(F)c(=O)[nH]1` [ADRUCIL®], in data set [8], the median survival was determined as 2.4 weeks.

Usually tissue uptake stands for the percentage of the injected dose found per gram of tissue.
